From publication PMC9875831
Where two headings read alike, the source gives them in different places.

Assays:
Assay in all cases: FRET or BRET
[1] = target: A2AR-D2R heteromer (A2AR-Rluc with D2R-GFP2) (human) (UniProt P29274)
[2] = target: A2AR-D2R heteromer (A2AR-Rluc with D2R-GFP2) (human) (UniProt P29274); remark: listed apart in the source
[3] = target: A2AR-Rluc (adenosine A2A receptor fused to Renilla luciferase) (human) (UniProt P29274)
[4] = target: D2R-Rluc (dopamine D2 receptor, long isoform, fused to Renilla luciferase) (human) (UniProt P14416)
Chain of UniProt P14416 (P14416 whole entry, the tested form may be a part, canonical isoform): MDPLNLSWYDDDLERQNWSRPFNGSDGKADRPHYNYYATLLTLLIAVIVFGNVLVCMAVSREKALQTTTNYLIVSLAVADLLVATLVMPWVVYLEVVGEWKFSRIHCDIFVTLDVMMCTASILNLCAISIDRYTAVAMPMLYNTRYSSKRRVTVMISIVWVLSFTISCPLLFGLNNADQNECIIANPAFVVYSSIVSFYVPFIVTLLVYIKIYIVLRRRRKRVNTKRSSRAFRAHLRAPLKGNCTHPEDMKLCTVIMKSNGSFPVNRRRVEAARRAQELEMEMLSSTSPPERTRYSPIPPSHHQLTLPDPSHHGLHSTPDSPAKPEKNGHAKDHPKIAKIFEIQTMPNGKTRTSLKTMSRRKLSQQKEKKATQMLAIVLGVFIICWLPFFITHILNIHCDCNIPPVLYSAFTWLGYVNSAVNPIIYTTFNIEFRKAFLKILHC

SRET50 [1]	SRET50 [2]	BRET50 [3]	BRET50 [4]	Substance
38.5	25.1	40.5	25.7	calneuron-1-YFP (from UniProt Q9BXU9 1-261) (natural protein)
24.1	8.9	42.4	23.4	NCS-1-YFP (neuronal calcium sensor 1 fused to yellow fluorescent protein) (from UniProt P62166 1-190) (natural protein)
